B1: MYC-SCOC (isoform 3) WT [human] / GFP-GABARAP [not stated] (parent complex)
chain 1: MDGSRKEEEEDSTFTNISLADDIDHSSRILYPRPKSLLPKMMNADMDVDAENQVELEEKTRLINQVLELQHTLEDLSARVDAVKEENLKLKSENQVLGQYIENLMSASSVFQTTDTKSKRK
chain 2: MKFVYKEEHPFEKRRSEGEKIRKKYPDRVPVIVEKAPKARIGDLDKKKYLVPSDLTVGQFYFLIRKRIHLRAEDALFFFVNNVIPPTSATMGQLYQEHHEEDFFLYIAYSDESVYGL

This experiment covers variants of B1. The experiment is described as follows: GFP-Trap immunoprecipitation, Western blot quantification; HEK293A lysates mixed prior to IP; mean ± s.d.; n = 3; read off a plot. Background: Immunoblotting shows a protein as a band on a membrane.
As for chain 1 S12E, chain 1 T15E, the response was roughly 63 % binding. With chain 1 S12E, chain 1 T13E, chain 1 T15E, chain 1 S18E the figure was roughly 100 % binding. chain 1 S18E: the response is roughly 18 % binding.

Values taken from article PMC8202330 (2021).
